Data published in paper PMC3830645.

Experiments:
[1] = target: EGF/tEGFR: purified tail-truncated EGFR (aa 25–1022) with EGF, solubilized in detergent or reconstituted in nanodiscs
[2] = target: EGF/tEGFR: purified tail-truncated EGFR (aa 25–1022) with EGF, solubilized in detergent or reconstituted in nanodiscs; remark: listed apart in the source

Row | Binder | IC50 of inhibition of tEGFR kinase activity [1] [nM] | IC50 of inhibition of EGFR (tEGFR) kinase activity [2] [nM]
1 | His6-Mig6 segment 1+2 (aa 336–412) mutant Y394E (domain or fragment) KSLPSYLNGVMPPTQSFAPDPKYVSSKALQRQNSEGSASKVPCILPIIENGKKVSSTHEYLLPERPPYLDKYEKFFR | 740 | –
2 | unligated GST-Mig6 (aa 336–391) (domain or fragment) KSLPSYLNGVMPPTQSFAPDPKYVSSKALQRQNSEGSASKVPCILPIIENGKKVPG | – | > 3000
